According to patent US20260008818A1, “CYCLIC PEPTIDE OR SALT THEREOF, AND USES THEREOF” (FUJIFILM Corporation, priority 2023, published 2026):
Bridge positions count the residues as written; N and C are the ends. Square brackets hold non-standard residues; d marks the D form. Ends that are not written are not given here. NMeL = CN[C@@H](CC(C)C)C(=O)O; hCys = N[C@@H](CCS)C(=O)O; Orn = NCCC[C@H](N)C(=O)O

Assays:
[1] = system: Recombinant Human FGFR 1 alpha (IIIc) Fc Chimera Protein; test: Binding affinity of chemically synthesized cyclic peptide to immobilized FGFR by SPR; conditions: 10 nmol/L cyclic peptide, 25° C., binding amount per one molecule of FGFR, chemically synthesized product
Protocol: The binding affinity of the cyclic peptide to FGFR was evaluated using a surface plasmon resonance (SPR) method.
A CM5 sensor chip (Cytiva, 29149603) was set in Biacore-T200 (manufactured by Cytiva) which is a surface plasmon resonance device, and an HBS-EP buffer (Cytiva, BR100826) was added as a running buffer at a flow rate of 10 μL/min to equilibrate the flow channel. Next, 70 μL of a mixed aqueous solution of 0.2 mol/L 1-(3-dimethylaminopropyl)-3-ethylcarbodiimide (EDC) and 0.05 mol/L N-hydroxysuccinimide (NHS) was added to activate the sensor chip. Then, Recombinant Human FGFR 1 alpha (IIIc) Fc Chimera Protein CF (R&D systems, 658-FR-050) prepared at 50 nmol/L in an Acetate 4.5 buffer (Cytiva, BR100350) was added thereto to perform immobilization at about 5000 RU. Thereafter, the blocking treatment was performed with an ethanolamine solution. In addition, in another flow channel of the same sensor chip, blocking treatment was performed immediately after activation without immobilizing FGFR.
A cyclic peptide diluted to 10 nmol/L using HBS-EP was added to each flow channel of the FGFR-immobilized sensor chip produced above at 25° C. for 10 minutes, then HBS-EP was allowed to flow as a running buffer for 30 minutes, and the binding of the cyclic peptide to FGFR was measured. Thereafter, a regeneration treatment of removing the bound cyclic peptide was performed by repeating the flow of a regeneration liquid in which sodium chloride powder was dissolved in Glysine 1.5 (Cytiva, BR100354) to a final concentration of 0.15 mol/L for 1 minute in each flow channel twice. The binding amount of the cyclic peptide was evaluated from the difference between the measured value of Biacore-T200 in the flow channel in which FGFR was immobilized and the measured value of Biacore-T200 in the flow channel in which FGFR was not immobilated, in a case where a 10 nmol/L cyclic peptide was allowed to flow.
The binding amount of the cyclic peptide evaluated above was normalized to the binding amount of the cyclic peptide molecules per one molecule of FGFR using the molecular weights of the cyclic peptide and FGFR, and the binding affinity to FGFR was evaluated according to the following evaluation criteria. The evaluation result preferably satisfies the evaluation criteria A, B, or C.
• A: The binding amount is 0.7 molecules of the cyclic peptide/one molecule of FGFR or more. • B: The binding amount is 0.5 molecules of the cyclic peptide/one molecule of FGFR or more and less than 0.7 molecules of cyclic peptide/one molecule of FGFR. • C: The binding amount is 0.1 molecules of cyclic peptide/one molecule of FGFR or more and less than 0.5 molecules of cyclic peptide/one molecule of FGFR. • D: The binding amount is less than 0.1 molecules of the cyclic peptide/one molecule of FGFR.

[2] = Molecular stability of cyclic peptide after reducing agent (DTT) treatment, LC; format: physicochemical; conditions: residual rate after 12.6 mmol/L DTT aqueous solution, room temperature, 1 hour
Protocol: The molecular stability of the cyclic peptide was evaluated by analyzing an aqueous solution of the cyclic peptide treated with a reducing agent by liquid chromatography (LC).
The reducing agent treatment was performed under the following conditions based on the concentration of glutathione contained in the cells. 25 μL of a 0.2 mg/mL cyclic peptide aqueous solution was prepared, 58.8 μL of a 12.6 mmol/L DTT aqueous solution was added to the aqueous solution, and the mixture was incubated at room temperature for 1 hour to obtain an aqueous solution of the cyclic peptide treated with a reducing agent. The DTT aqueous solution was used by diluting a 1 mol/L (+-)-dithiothreitol (DTT) solution (FUJIFILM Wako Pure Chemical Corporation, 044-33871) with water. The total area of all the peaks in LC/MS of the cyclic peptide before the reducing agent treatment was set to 100%, and the proportion of the total area of all the peaks in LC/MS of the aqueous solution of the cyclic peptide treated with the reducing agent was determined to calculate the residual rate of the cyclic peptide, and the molecular stability was evaluated according to the following evaluation criteria. The evaluation result preferably satisfies the evaluation criteria A, B, or C.
• A: The residual rate of cyclic peptide is 90% or more. • B: The residual rate of the cyclic peptide is 70% or more and less than 90% • C: The residual rate of the cyclic peptide is 50% or more and less than 70% • D: The residual rate of the cyclic peptide is less than 50%
The LC used for the evaluation of molecular stability was set to the following conditions. • LC device: Prominence series (pump, column oven, autosampler, detector) (manufactured by Shimadzu Corporation) • Detector: photodiode array detector (SPD-M20A), measurement wavelength of 280 nm • Column: TSKgel ODS-100V, inner diameter of 4.6 mm×length of 150 mm, particle diameter of 5 μm (manufactured by Tosoh Corporation) • Eluent A: solution containing 0.1% trifluoroacetic acid as solute, and solvent is 100% water • Eluent B: solution containing 0.1% trifluoroacetic acid as solute, and solvent is 100% acetonitrile • Flow rate: 1.0 mL/min • Injection amount: 25 μL • Gradient: 20% to 50%: Eluent B (0 to 15 minutes), 100%: Eluent B (15 minutes) • Column temperature: 40° C.

Row | Substance | Evaluation result of binding affinity to FGFR [1] | Evaluation result of reductive stability [2]
1 | 374 (HXSYERLQFHGHEAPFRVKVKKK; not fully specified; Description of Artificial Sequence: Cyclic peptide) [compound 374] | A (The binding amount is 0.7 molecules of the cyclic peptide/one molecule of FGFR or more.) | A (The residual rate of cyclic peptide is 90% or more.)
2 | 375 (HXSYERLQFHGHEAPFRVXVKKK; not fully specified; Description of Artificial Sequence: Cyclic peptide) [compound 375] | A (The binding amount is 0.7 molecules of the cyclic peptide/one molecule of FGFR or more.) | A (The residual rate of cyclic peptide is 90% or more.)
3 | 376 (HXSYERLQFHGHEAPFRVXVKKK; not fully specified; Description of Artificial Sequence: Cyclic peptide) [compound 376] | A (The binding amount is 0.7 molecules of the cyclic peptide/one molecule of FGFR or more.) | A (The residual rate of cyclic peptide is 90% or more.)
4 | 377 (HXSYERLQFHGHEAPFRVXVKKK; not fully specified; Description of Artificial Sequence: Cyclic peptide) [compound 377] | A (The binding amount is 0.7 molecules of the cyclic peptide/one molecule of FGFR or more.) | A (The residual rate of cyclic peptide is 90% or more.)
5 | 378 (HKSYERLQFHGHEAPFRVXVKKK; not fully specified; Description of Artificial Sequence: Cyclic peptide) [compound 378] | A (The binding amount is 0.7 molecules of the cyclic peptide/one molecule of FGFR or more.) | A (The residual rate of cyclic peptide is 90% or more.)
6 | 379 (HXSYERLQFHGHEAPFRVXVKKK; not fully specified; Description of Artificial Sequence: Cyclic peptide) [compound 379] | A (The binding amount is 0.7 molecules of the cyclic peptide/one molecule of FGFR or more.) | A (The residual rate of cyclic peptide is 90% or more.)
7 | 380 (HXSYERLQFHGHEAPFRVXVKKK; not fully specified; Description of Artificial Sequence: Cyclic peptide) [compound 380] | A (The binding amount is 0.7 molecules of the cyclic peptide/one molecule of FGFR or more.) | A (The residual rate of cyclic peptide is 90% or more.)
8 | 381 (HXSYERLQFHGHEAPFRVXVKKK; not fully specified; Description of Artificial Sequence: Cyclic peptide) [compound 381] | A (The binding amount is 0.7 molecules of the cyclic peptide/one molecule of FGFR or more.) | A (The residual rate of cyclic peptide is 90% or more.)
9 | 383 (HCSYERLQFHGHEAPFRVCVKKK; disulfide 2-19) [compound 383] |  | D (The residual rate of the cyclic peptide is less than 50%)
10 | 384 (H[Orn]SYERLIFHGHEAPFWV[hCys]VKKK; bridge 2-19; not fully specified (residue 2, bridges); printed as H-(Orn(acetyl))-SYERLIFHGHEAPFWV-(Hcy)-VKKK) [compound 384] | A (The binding amount is 0.7 molecules of the cyclic peptide/one molecule of FGFR or more.) | B (The residual rate of the cyclic peptide is 70% or more and less than 90%)
11 | 385 ([Orn]SYERLIFHGHEAPFWV[hCys]KKK; bridge 1-18; not fully specified (residue 1, bridges); printed as (Orn(acetyl))-SYERLIFHGHEAPFWV-(Hcy)-KKK) [compound 385] | C (The binding amount is 0.1 molecules of cyclic peptide/one molecule of FGFR or more and less than 0.5 molecules of cyclic peptide/one molecule of FGFR.) | A (The residual rate of cyclic peptide is 90% or more.)
12 | 386 ({CH2CO}-HASYERLIFHGHEAPFWVCVKKK; thioether N-19 (inferred)) [compound 386] | B (The binding amount is 0.5 molecules of the cyclic peptide/one molecule of FGFR or more and less than 0.7 molecules of cyclic peptide/one molecule of FGFR.) | A (The residual rate of cyclic peptide is 90% or more.)
13 | 387 (H[Orn]SYER[NMeL]IFHGHEAPFWV[hCys]VKKK; bridge 2-19; not fully specified (residue 2, bridges)) [compound 387] | A (The binding amount is 0.7 molecules of the cyclic peptide/one molecule of FGFR or more.) | A (The residual rate of cyclic peptide is 90% or more.)
14 | 389 (H[Orn]SYERLIFHGHEAPFWV[hCys]KKK; bridge 2-19; not fully specified (residue 2, bridges); printed as H-(Orn(acetyl))-SYERLIFHGHEAPFWV-(Hcy)-KKK) [compound 389] | A (The binding amount is 0.7 molecules of the cyclic peptide/one molecule of FGFR or more.) | A (The residual rate of cyclic peptide is 90% or more.)
15 | 390 ([Orn]SYERLIFHGHEAPFWV[hCys]VKKK; bridge 1-18; not fully specified (residue 1, bridges); printed as (Orn(acetyl))-SYERLIFHGHEAPFWV-(Hcy)-VKKK) [compound 390] | C (The binding amount is 0.1 molecules of cyclic peptide/one molecule of FGFR or more and less than 0.5 molecules of cyclic peptide/one molecule of FGFR.) | A (The residual rate of cyclic peptide is 90% or more.)
